Experimental data: US20220332804A1 (CSL INNOVATION, published 2022)

How the values were obtained:
Assay in all cases: SPR, antibody captured, C2 as analyte;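 further: biacore at 37 °C, anti-C2 mAbs held by immobilised goat anti-human IgG, C2 alanine or serine mutants injected, double-referenced sensorgrams fitted to a 1:1 kinetic or steady-state model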
human C2 E275A = molecular target: T1, human C2 E275A (human, UniProt P06681 21-752)
T1 sequence: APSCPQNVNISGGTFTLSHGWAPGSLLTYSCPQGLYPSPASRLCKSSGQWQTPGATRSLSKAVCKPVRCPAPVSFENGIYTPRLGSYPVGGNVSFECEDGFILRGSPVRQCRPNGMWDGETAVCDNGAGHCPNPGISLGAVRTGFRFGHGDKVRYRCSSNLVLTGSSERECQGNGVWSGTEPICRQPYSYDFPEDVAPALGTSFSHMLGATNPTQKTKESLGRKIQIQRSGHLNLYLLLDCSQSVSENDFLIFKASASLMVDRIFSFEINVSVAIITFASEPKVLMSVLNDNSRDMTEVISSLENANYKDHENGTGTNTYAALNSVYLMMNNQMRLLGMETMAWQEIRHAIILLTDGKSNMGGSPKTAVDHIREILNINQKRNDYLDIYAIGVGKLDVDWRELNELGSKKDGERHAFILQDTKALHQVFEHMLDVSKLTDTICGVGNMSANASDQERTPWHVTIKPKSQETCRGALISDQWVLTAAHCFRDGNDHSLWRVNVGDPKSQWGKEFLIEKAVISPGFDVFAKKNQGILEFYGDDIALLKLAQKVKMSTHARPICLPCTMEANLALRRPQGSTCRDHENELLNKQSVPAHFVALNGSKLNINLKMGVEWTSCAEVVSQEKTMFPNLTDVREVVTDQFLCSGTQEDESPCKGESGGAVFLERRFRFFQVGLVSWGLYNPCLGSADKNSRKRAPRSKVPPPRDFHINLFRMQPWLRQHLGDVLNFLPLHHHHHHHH

human C2 E476A = molecular target: T2, human C2 E476A (human, UniProt P06681 21-752)
T2 sequence: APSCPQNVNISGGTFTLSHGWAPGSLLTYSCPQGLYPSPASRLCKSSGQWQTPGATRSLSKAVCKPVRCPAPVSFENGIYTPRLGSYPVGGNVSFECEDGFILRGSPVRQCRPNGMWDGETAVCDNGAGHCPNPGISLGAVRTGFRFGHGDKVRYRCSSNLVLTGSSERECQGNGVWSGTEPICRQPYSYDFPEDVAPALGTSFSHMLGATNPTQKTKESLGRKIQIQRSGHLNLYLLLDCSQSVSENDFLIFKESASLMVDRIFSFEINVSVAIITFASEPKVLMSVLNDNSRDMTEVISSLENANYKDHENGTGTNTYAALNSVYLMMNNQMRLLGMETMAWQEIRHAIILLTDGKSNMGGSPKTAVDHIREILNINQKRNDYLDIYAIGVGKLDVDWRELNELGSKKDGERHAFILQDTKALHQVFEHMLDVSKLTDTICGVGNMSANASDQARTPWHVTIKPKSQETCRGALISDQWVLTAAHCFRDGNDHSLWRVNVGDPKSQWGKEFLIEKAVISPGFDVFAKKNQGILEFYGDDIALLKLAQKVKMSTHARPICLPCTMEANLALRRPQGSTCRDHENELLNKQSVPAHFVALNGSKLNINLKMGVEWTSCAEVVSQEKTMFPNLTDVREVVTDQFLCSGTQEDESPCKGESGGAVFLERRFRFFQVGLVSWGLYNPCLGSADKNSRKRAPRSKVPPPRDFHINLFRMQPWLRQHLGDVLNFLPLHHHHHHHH

human C2 K457A = molecular target: T3, human C2 K457A (human, UniProt P06681 21-752)
T3 sequence: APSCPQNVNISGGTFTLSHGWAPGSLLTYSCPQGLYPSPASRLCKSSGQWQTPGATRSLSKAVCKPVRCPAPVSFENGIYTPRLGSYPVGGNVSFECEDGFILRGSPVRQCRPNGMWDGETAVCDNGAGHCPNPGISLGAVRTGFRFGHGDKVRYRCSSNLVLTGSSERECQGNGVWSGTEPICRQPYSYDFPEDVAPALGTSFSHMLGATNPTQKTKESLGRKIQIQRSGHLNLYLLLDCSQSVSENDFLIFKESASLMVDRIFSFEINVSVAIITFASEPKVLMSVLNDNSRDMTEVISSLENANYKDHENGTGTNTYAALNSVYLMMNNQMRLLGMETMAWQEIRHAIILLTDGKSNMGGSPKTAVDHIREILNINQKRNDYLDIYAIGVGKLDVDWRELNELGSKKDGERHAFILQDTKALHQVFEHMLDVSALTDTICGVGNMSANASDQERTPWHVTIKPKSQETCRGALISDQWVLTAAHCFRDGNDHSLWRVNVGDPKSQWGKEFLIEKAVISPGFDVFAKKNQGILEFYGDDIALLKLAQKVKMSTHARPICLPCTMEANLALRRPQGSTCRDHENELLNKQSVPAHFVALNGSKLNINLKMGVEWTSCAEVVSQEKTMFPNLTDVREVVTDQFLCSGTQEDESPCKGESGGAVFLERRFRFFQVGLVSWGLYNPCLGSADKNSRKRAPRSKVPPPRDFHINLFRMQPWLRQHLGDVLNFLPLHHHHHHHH

human C2 M316A = molecular target: T4, human C2 M316A (human, UniProt P06681 21-752)
T4 sequence: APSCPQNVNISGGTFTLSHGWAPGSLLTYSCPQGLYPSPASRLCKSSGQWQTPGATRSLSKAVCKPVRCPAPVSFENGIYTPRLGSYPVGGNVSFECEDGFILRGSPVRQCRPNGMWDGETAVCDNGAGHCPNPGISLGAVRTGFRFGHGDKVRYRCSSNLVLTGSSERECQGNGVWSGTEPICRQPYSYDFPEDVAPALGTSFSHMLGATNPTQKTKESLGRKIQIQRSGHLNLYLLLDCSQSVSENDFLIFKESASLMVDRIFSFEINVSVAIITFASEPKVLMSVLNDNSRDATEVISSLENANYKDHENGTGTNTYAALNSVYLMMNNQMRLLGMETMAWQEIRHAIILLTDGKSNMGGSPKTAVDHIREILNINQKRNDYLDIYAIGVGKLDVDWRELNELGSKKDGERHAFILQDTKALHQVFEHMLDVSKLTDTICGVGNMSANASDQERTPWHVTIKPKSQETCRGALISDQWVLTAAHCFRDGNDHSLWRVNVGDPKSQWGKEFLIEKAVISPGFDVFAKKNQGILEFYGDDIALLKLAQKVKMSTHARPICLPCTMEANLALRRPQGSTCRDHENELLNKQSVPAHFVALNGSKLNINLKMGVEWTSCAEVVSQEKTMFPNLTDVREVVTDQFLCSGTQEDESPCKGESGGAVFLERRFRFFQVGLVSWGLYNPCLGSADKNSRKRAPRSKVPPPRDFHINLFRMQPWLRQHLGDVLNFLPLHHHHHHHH

B1: RF16-242 (antibody, human IgG4 S228P, lambda, V domains shown)
VH: EVQLLQSGAEVKKPGESLKISCKGSGYSFTSYWIGWVRQMPGKGLEWMGIIYPGDSDTRYSPSFQGQVTISADKSISTAYLQWSSLKASDTAMYYCARRGHYGDYFDYWGQGTLVTVSS
VL: SYELTQPPSVSVSPGQTARITCSGDALPKKYAYWYHQKSGQAPVLVIYEDRRRPSEIPERFSGSSSGTMATLTITGAQVEDEGVYFCYSRDRAGNQRVFGGGTQLTVLG
notes: pH-dependent anti-C2 antibody from a phage display library
B1 gave a Kd (human C2 E275A) of 42.8 nM, a Kd (human C2 E476A) of 14 nM and a Kd (human C2 K457A) of 233 nM. For the same binder, the Kd (human C2 M316A) was 10.1 nM.
